Where no end group is shown, it is not given here. The star is where a group is joined. Biotin = O=C1N[C@H]2[C@H](CS[C@H]2CCCCC(=O)*)N1
T1: peptide 21 (PfCSP residues 101-115) (Plasmodium falciparum)
T1 chain: NPDPNANPNVDPNAN

T2: Biotinylated junctional peptide NPDP19 (Plasmodium falciparum NF54/3D7)
T2 chain: Biotin-KQPADGNPDPNANPNVDPN

T3: peptide NANP5, biotinylated (Plasmodium falciparum, biotin (position not given))
T3 chain: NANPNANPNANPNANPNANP

T4: peptide 21, biotinylated (Plasmodium falciparum NF54/3D7, also: biotin, position not given here)
T4 chain: NPDPNANPNVDPNAN


How the values were obtained:
[1] = molecular target: T1, peptide 21 (PfCSP residues 101-115); assay: crystal structure
[2] = molecular target: T2, Biotinylated junctional peptide NPDP19; assay: BLI
[3] = molecular target: T2, Biotinylated junctional peptide NPDP19; assay: AlphaScreen or HTRF
[4] = molecular target: T3, peptide NANP5, biotinylated; assay: BLI
[5] = molecular target: T4, peptide 21, biotinylated; assay: BLI

Binder | binding result [1] | binding result [3] | other results
iGL-CIS43.D3 Fab (Fab, V domains shown) VH: QVHLVQSGAEVKKPGASVKVSCKASGYTFTRYAIHWVRQAPGQRLEWMGWIKGGNGNTRYSQKFQDRVTITRDTSASTAYMELSSLRSEDTAVYYCALLTVITPDDAFDIWGQGTMVTVSS VL: not shown | binds | – | Kd [2]: 1.01 nM
iGL_Core8 with the reversion K52N in the heavy chain (antibody, V domains shown) VH: QVQLVQSGAEVKKPGASVKVSCKASGYTFTSYAIHWVRQAPGQRLEWMGWINAGNGNTRYSQKFQGRVTITRDTSASTAYMELSSLRSEDTAVYYCALLTVITPDDAFDIWGQGTMVTVSS VL: not shown | – | binds | –
iGL_Core8 with the reversion R58K in the heavy chain (antibody, V domains shown) VH: QVQLVQSGAEVKKPGASVKVSCKASGYTFTSYAIHWVRQAPGQRLEWMGWIKAGNGNTKYSQKFQGRVTITRDTSASTAYMELSSLRSEDTAVYYCALLTVITPDDAFDIWGQGTMVTVSS VL: not shown | – | binds | –
iGL-CIS43-HL.K28.m43.151 Fab (Fab, V domains shown) VH: QVHLVQSGAEVKKPGASVKVSCKASGYTFTSYAIHWVRQAPGQRLEWMGWIKGGNGNTRYSQKFQDRVTITRDTSASTAYMELSSLRSEDTAVYYCALLTVITPDDAFDIWGQGTMVTVSS VL: not shown | binds | – | –
iGL_Core8 with the reversion I34M in the heavy chain (antibody, V domains shown) VH: QVQLVQSGAEVKKPGASVKVSCKASGYTFTSYAMHWVRQAPGQRLEWMGWIKAGNGNTRYSQKFQGRVTITRDTSASTAYMELSSLRSEDTAVYYCALLTVITPDDAFDIWGQGTMVTVSS VL: not shown | – | binds | –
iGL-CIS43-HL.K28.m42.127 Fab (Fab, V domains shown) VH: QVQLVQSGAEVKKPGASVKVSCKASGYTFTSYAIHWVRQAPGQRLEWMGWIKAGNGNTRYSQKFQDRVTITRDTSASTAYMELSSLRSEDTAVYYCALLTVITPDDTFDIWGQGTMVTVSS VL: not shown | binds | – | –
iGL_Core8 with the reversion I98V in the heavy chain (antibody, V domains shown) VH: QVQLVQSGAEVKKPGASVKVSCKASGYTFTSYAIHWVRQAPGQRLEWMGWIKAGNGNTRYSQKFQGRVTITRDTSASTAYMELSSLRSEDTAVYYCALLTVVTPDDAFDIWGQGTMVTVSS VL: not shown | – | binds | –
iGL_Core8 with the reversion S94T in the light chain (antibody, V domains shown) VH: QVQLVQSGAEVKKPGASVKVSCKASGYTFTSYAIHWVRQAPGQRLEWMGWIKAGNGNTRYSQKFQGRVTITRDTSASTAYMELSSLRSEDTAVYYCALLTVITPDDAFDIWGQGTMVTVSS VL: not shown | – | binds | –
mature CIS43 Fab (Fab, V domains shown) VH: QVQLVQSGAEVKKPGASVKVSCKASGYTFTSYAIHWVRQAPGQRLEWMGWIKAGNGNTRYSQKFQDRVTITRDTSTTTAYMELSSLRSEDTAVYYCALLTVLTPDDAFDIWGQGTMVTVSS VL: not shown | – | – | binding result [4]: binds; binding result [5]: binds

Reference: publication PMC9087378 (Immunity, 2021)
